Measured values: patent publication US20230303674A1

Key:
[1] = target: human α-CGRP V32A (25-37) (human); test: Biacore SPR, 25 °C, Fab over peptide on chip; KD ratio to parent 25-37
[2] = target: human α-CGRP T30A (25-37) (human); test: as above
[3] = target: human α-CGRP V28A (25-37) (human); test: as above
[4] = target: human α-CGRP P29A (25-37) (human); test: as above
[5] = target: human α-CGRP F37A (25-37) (human); test: as above
[6] = target: human α-CGRP S34A (25-37) (human); test: as above
[7] = target: human α-CGRP F27A (25-37) (human); test: as above
[8] = target: human α-CGRP G33A (25-37) (human); test: as above
[9] = target: human α-CGRP N31A (25-37) (human); test: as above
[10] = target: human α-CGRP K35A (19-37) (human); test: Biacore SPR, 25 °C, Fab over peptide on chip; KD ratio to parent 19-37
rat α-CGRP (1-37) (rat) = test: Biacore 37°C, Fab over biotinylated CGRP on SA chip
Sequence of rat α-CGRP (1-37) (rat) (peptide, as listed by the source): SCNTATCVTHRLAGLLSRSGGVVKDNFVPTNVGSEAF

[11] = target: human α-CGRP 1-37 (WT) (human); test: as above
Sequence of human α-CGRP 1-37 (WT) (human) (peptide, as listed by the source): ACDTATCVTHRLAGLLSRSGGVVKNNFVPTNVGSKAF

[12] = target: human α-CGRP 1-37 (WT) (human); test: Biacore 25°C, Fab over biotinylated CGRP on SA chip
[13] = target: human α-CGRP fragment 25-37 (human); test: Biacore SPR, 25 °C, Fab flowed over biotinylated peptide on SA chip; mean ± SD of two measurements
[14] = target: human α-CGRP fragment 19-37 (human); test: as above

How did the KD(mutant/parent) [1] turn out when “murine anti-CGRP monoclonal antibody 7E9, Fab fragment” was run?
Its KD(mutant/parent) is 41.

What about the KD(mutant/parent) [2] of the same substance?
Its KD(mutant/parent) is 7.

What about the KD(mutant/parent) [3] of the same substance?
Its KD(mutant/parent) is 1.

What about the KD(mutant/parent) [4] of the same substance?
The KD(mutant/parent) was 26.

What about the KD(mutant/parent) [5] of the same substance?
Its KD(mutant/parent) is 3600.

And the KD(mutant/parent) [6]?
The KD(mutant/parent) was 69.

What about the KD(mutant/parent) [7] of the same substance?
Its KD(mutant/parent) is 1.

What about the KD(mutant/parent) [8] of the same substance?
Its KD(mutant/parent) is 1260.

What about the KD(mutant/parent) [9] of the same substance?
The KD(mutant/parent) was 9.

What about the KD(mutant/parent) [10] of the same substance?
The KD(mutant/parent) was 4.

What about the Kd (rat α-CGRP (1-37) (rat)) of the same substance?
Its Kd is 47 nM.

And the Kd [11]?
The Kd was 0.9 nM.

And the Kd [12]?
Its Kd is 1 nM.

What about the Kd [13] of the same substance?
The Kd was 0.14 nM.

What about the Kd [14] of the same substance?
The Kd was 1.1 nM.
